Assay results: WO2008121160A2 (dated 2008)

Target: T1, CD5-His-GST (human, UniProt P06127 25-372)
T1 construct: Expressed in 293T cells, purified by nickel chromatography; also called Recombinant CD5; Tagged CD5 antigen; not shown: C-terminal Factor Xa site; 6X His tag; GST protein
T1 sequence: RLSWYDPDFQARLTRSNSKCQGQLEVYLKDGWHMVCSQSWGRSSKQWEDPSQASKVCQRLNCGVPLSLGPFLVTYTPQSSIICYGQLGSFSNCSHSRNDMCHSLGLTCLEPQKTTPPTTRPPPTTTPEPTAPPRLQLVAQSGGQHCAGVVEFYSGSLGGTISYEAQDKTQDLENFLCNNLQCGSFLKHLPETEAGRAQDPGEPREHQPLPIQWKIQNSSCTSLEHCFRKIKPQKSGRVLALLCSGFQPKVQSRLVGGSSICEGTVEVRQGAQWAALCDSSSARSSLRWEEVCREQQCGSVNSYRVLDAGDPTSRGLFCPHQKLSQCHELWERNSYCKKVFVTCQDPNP
Test: Biacore (SPR), global Langmuir fits

Kd: ~1.5 nM
B1: 5D7_H0L0_IgG1_WT (antibody, V domains shown)
VH: QVTLKESGPGILKPSQTLSLTCSFSGFSLSTSGMGVGWIRQPSGKGLEWLAHIWWDDDVYYNPSLKNQLTISKDASRDQVFLKITNLDTADTATYYCVRRRATGTGFDYWGQGTTLTVSS
VL: NIVMTQSHKFMSTSVGDRVSIACKASQDVGTAVAWYQQKPGQSPKLLIYWTSTRHTGVPDRFTGSGSGTDFTLTITNVQSEDLADYFCHQYNSYNTFGSGTRLELKR
notes: also called chimeric 5D7; H0L0 5D7
